Experimental data from PMC3512577 (Nature structural & molecular biology, 2011).

Experiments:
[1] = target: recombinant C3d D122A (D1115A) (human) (UniProt P01024); experiment: SPR
plasma-derived C3d = plasma-derived C3d (UniProt P01024 996-1303); experiment: NMR titration
[2] = target: recombinant C3d E117A (E1110A), with C17A (C1011A) (human, UniProt P01024 996-1306, E117A (E1110A)); experiment: SPR
[3] = target: recombinant C3d D122A (D1115A), with C17A (C1011A) (human, UniProt P01024 996-1306, D122A (D1115A)); experiment: SPR
[4] = target: recombinant C3d E117A/D122A (E1110A/D1115A), with C17A (C1011A) (human, UniProt P01024 996-1306, E117A (E1110A) | D122A (D1115A)); experiment: SPR

| Molecule | Kd [1] | binding result (plasma-derived C3d) | fold decrease in binding against C3d E160A and I164A [2] | fold decrease in binding against wild-type C3d [2] | fold decrease in binding against C3d E160A and I164A [3] | fold decrease in binding against wild-type C3d [3] | Kd [4] | fold decrease in affinity against wild-type C3d [4] |
| --- | --- | --- | --- | --- | --- | --- | --- | --- |
| FH19–20 L1189F (from UniProt P08603 1108-1231) (domain or fragment) | 46 µM | – | – | – | – | – | – | – |
| complement factor H CCP19–20, wild type (FH19–20) (from UniProt P08603 1108-1231) (domain or fragment) | 46 µM | – | – | – | – | – | – | – |
| FH19–20 (wild-type recombinant fragment of human complement factor H, CCP modules 19 and 20) (domain or fragment, UniProt P08603 1108-1231, looked up, 15N-labelled (NMR experiments only)) KCGPPPPIDNGDITSFPLSVYAPASSVEYQCQNLYQLEGNKRITCRNGQWSEPPKCLHPCVISREIMENYNIALRWTAKQKLYSRTGESVEFVCKRGYRLSSRSHTLRTTCWDGKLEYPTCAKR | – | binds | 2 fold | 4 fold | 3 fold | 6 fold | ~30000 µM | ~1600 fold |
